Paper PMC6938246

Tests used:
[1] = target: filamentous actin (F-actin) (rabbit) (UniProt P68135); test: co-sedimentation
[2] = target: filamentous actin (F-actin) (rabbit) (UniProt P68135); test: single-molecule TIRF microscopy

utrophin actin-binding domain (CH1–CH2), wild type, sequence (P46939 31-256): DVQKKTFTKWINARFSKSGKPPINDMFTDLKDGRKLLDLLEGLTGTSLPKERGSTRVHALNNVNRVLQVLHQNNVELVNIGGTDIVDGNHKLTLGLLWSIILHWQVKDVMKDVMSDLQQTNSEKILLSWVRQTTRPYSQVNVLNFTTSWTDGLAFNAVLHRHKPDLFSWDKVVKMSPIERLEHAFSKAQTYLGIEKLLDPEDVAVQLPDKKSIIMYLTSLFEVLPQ
utrophin actin-binding domain with residues 1–27 truncated (Δ-n-term), sequence (P46939 28-3433, stated change not applied): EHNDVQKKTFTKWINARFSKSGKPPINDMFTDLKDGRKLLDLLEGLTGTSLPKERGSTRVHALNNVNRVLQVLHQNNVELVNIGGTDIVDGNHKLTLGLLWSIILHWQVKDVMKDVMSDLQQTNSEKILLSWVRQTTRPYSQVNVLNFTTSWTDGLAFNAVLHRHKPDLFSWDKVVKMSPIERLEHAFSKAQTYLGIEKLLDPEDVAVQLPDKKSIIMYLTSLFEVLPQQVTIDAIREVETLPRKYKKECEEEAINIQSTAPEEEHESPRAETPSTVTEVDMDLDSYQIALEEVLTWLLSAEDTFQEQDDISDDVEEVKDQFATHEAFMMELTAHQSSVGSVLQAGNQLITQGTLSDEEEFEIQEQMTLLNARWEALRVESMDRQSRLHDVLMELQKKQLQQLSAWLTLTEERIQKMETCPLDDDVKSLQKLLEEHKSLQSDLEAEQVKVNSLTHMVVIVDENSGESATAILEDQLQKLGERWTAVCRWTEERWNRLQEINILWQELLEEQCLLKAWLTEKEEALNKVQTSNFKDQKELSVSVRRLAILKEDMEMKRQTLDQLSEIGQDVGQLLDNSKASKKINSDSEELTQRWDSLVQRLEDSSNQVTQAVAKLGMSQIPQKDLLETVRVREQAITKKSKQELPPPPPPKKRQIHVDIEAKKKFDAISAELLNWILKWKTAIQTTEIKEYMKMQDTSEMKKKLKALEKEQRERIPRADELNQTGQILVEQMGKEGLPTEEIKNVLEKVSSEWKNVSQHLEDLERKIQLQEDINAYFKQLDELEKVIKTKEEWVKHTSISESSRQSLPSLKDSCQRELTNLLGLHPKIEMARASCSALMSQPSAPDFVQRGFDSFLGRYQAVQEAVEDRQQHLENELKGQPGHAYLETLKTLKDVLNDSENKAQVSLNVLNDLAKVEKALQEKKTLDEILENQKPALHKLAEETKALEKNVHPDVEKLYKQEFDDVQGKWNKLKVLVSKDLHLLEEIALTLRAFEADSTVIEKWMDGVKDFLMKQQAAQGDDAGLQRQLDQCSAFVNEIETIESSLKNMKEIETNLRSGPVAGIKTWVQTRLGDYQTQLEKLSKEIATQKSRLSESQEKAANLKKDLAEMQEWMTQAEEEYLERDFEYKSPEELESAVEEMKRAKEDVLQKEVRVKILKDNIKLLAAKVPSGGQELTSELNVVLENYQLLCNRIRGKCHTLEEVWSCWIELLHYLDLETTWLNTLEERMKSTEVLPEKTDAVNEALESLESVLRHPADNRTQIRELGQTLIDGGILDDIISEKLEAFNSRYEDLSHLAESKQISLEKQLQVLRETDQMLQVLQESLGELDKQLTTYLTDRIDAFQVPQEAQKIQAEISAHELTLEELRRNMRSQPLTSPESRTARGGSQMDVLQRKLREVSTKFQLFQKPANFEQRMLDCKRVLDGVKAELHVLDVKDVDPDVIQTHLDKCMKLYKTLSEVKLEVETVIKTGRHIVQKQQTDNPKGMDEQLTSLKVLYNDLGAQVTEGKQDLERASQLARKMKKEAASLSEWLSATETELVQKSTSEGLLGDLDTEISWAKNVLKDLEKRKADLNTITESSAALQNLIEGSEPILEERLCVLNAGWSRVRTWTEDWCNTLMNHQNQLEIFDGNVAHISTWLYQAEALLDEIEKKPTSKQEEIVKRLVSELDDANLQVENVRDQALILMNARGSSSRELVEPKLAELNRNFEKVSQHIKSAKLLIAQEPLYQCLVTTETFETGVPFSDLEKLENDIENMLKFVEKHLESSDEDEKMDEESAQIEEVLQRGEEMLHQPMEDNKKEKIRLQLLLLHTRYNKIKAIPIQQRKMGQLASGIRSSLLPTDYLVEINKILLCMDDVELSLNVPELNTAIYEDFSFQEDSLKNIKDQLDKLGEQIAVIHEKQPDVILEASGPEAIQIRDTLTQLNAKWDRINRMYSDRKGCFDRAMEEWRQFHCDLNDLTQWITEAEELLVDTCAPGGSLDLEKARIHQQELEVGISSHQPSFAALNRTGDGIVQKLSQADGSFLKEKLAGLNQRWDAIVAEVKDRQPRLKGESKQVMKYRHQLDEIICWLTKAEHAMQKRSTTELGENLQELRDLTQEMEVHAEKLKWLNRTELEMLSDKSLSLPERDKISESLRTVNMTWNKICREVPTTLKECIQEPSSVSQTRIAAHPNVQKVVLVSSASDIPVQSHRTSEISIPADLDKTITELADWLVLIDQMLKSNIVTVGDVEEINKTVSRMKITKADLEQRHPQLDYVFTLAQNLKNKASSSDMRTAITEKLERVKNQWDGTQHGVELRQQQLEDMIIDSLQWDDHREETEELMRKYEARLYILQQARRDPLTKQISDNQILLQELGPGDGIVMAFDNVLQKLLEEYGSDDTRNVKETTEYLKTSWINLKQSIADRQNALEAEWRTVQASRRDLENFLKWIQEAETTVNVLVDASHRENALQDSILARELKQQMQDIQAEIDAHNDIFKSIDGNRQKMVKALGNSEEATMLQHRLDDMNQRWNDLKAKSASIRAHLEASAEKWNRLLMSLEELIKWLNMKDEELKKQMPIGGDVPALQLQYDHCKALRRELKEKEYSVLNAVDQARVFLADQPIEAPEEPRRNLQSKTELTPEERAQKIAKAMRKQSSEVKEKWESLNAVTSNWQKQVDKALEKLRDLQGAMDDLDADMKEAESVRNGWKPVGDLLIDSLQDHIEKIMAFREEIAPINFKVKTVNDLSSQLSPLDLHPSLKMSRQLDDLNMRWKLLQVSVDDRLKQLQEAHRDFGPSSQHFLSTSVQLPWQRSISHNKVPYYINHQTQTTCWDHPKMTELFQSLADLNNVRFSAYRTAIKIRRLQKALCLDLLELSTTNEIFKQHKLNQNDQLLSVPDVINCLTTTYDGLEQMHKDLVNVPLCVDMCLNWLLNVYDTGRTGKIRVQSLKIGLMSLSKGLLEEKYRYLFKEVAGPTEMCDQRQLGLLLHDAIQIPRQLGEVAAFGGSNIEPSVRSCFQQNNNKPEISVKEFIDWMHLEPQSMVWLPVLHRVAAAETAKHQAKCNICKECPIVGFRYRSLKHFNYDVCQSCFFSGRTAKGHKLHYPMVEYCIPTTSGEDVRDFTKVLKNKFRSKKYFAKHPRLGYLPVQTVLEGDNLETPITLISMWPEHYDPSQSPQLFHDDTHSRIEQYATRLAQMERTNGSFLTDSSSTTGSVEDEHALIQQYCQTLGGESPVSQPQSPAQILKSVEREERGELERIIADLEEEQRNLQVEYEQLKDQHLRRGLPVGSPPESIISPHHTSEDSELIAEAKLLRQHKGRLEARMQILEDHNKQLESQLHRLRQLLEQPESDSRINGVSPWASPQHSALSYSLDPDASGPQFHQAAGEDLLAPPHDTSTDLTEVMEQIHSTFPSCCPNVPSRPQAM
plectin actin-binding domain (CH1–CH2) (domain or fragment), sequence (Q15149 60-293): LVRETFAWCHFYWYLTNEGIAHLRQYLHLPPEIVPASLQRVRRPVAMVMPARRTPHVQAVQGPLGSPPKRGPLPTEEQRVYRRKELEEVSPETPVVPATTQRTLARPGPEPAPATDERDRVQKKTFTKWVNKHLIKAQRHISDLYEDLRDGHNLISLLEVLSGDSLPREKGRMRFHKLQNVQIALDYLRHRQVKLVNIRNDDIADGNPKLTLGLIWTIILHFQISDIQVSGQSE

Substance	Kd [1]	mean dwell time of binding events [2]
utrophin actin-binding domain S158C conjugated with maleimide-750Da PEG (from UniProt P46939 31-256) (domain or fragment)	53.8 µM	–
utrophin actin-binding domain with residues 1–27 truncated (Δ-n-term) (from UniProt P46939 28-3433) (domain or fragment)	31.4 µM	–
plectin actin-binding domain (CH1–CH2) (domain or fragment)	120 µM	–
plectin actin-binding domain K278E (domain or fragment)	45.1 µM	–

Substances with a lower Kd [1], results first:

Kd [1]	mean dwell time of binding events [2]	Substance
13.8 µM	0.96 s	utrophin actin-binding domain (CH1–CH2), wild type (from UniProt P46939 31-256) (domain or fragment)
12.5 µM	–	utrophin actin-binding domain S158C, unconjugated (from UniProt P46939 31-256) (domain or fragment)
0.4 µM	8.49 s	utrophin actin-binding domain Q33A T36A (from UniProt P46939 31-256) (domain or fragment)
